# Experiments:
# MbpR = target: T1, MbpR (Lactiplantibacillus plantarum, UniProt F9USQ8); test: ITC; type: binding
# T1 sequence (F9USQ8 1-306): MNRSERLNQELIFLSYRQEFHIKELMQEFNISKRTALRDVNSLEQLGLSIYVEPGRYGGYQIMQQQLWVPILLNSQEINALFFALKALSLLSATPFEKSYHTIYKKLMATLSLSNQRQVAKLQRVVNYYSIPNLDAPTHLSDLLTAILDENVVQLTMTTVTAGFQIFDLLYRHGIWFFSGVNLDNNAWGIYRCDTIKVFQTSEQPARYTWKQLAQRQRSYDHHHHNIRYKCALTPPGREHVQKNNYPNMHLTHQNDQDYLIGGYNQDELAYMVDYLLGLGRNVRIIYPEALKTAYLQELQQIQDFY
# [1] = target: mucin binding domain of MbpB (L. plantarum WCFS1); test: MST
# [2] = target: mucin binding domain of MbpA (L. plantarum WCFS1); test: MST
Kd (MbpR) [nM],Kd [1] [nM],Kd [2] [nM],Compound
220,–,–,Nc1nc2c(ncn2[C@@H]2O[C@@H]3CO[P@](=O)(O)O[C@H]4[C@@H](O)[C@H](n5cnc6c(=O)[nH]c(N)nc65)O[C@@H]4CO[P@](=O)(O)O[C@H]3[C@H]2O)c(=O)[nH]1 [c-di-GMP]
–,690,530,mucin (natural protein)

# From paper PMC11880434 (Nature Communications, 2025)
